Experimental findings from patent publication US10119137B2, “Methods used to treat cancer” (THE TRANSLATIONAL GENOMICS RESEARCH INSTITUTE, priority 2015, dated 2018) are described below.

Common to all, as to type: cell-based, Human
One assay concerns U87 glioma cells. Put plainly: Histone H2A.X phosphorylation immunoblot after TMZ. The note with it: U87, TMZ 500 μM, control or SGEF depleted conditions. As to the method: (§1) For immunoblotting, cells were lysed in 2×SDS sample buffer (0.25 M Tris-HCl, pH 6.8, 10% SDS, 25% glycerol) containing 10 μg/mL aprotinin, 10 μg/mL leupeptin, 20 mM NaF, 2 mM sodium orthovanadate, and 1 mM phenylmethylsulfonyl fluoride. Protein concentrations were determined using the BCA assay (Pierce) with bovine serum albumin as a standard. Thirty micrograms of total protein were loaded per lane and separated by SDS PAGE. After 4° C. transfer, the nitrocellulose (Invitrogen) was blocked with either 5% nonfat milk or 5% BSA in Tris-buffered saline, pH 8.0, containing 0.1% Tween 20 (TBST) prior to addition of primary antibodies and followed with peroxidase-conjugated anti-mouse IgG or anti-rabbit IgG. Protein was detected using SuperSignal West Dura Chemiluminescent Substrate (Thermo Scientific) with a UVP BioSpectrum 500 Imaging System (Upland, Calif.). Densitometry was calculated via Image J software.

Assay [1] has as its system T98G and U118 glioma cells. Briefly: TWEAK stimulation: SGEF mRNA (qPCR) and protein (western blot) expression. The note with it: TWEAK 100 ng/mL, increase apparent within two hours. The method, then: Human astrocytoma cell lines U87, U118, and T98G (American Type Culture Collection), as well as primary glioblastoma xenograft cells (GBM & GBM TMZ-R lines) were maintained in DMEM (Gibco, USA) supplemented with 10% heat-inactivated fetal bovine serum (FBS; Gibco, USA) at 37° C. with 5% CO2. For all assays with TWEAK treatment, cells were cultured in reduced serum (0.5% fetal bovine serum) for 16 h before stimulation with recombinant TWEAK at 100 ng/mL in DMEM+0.1% bovine serum albumin for the indicated times.
as §1, with “After 4° C. transfer, the nitrocellulose (Invitrogen) was blocked with either 5% nonfat milk or 5% BSA in Tris-buffered saline, pH 8.0, containing 0.1% Tween 20 (TBST) prior to addition of primary antibodies and followed with peroxidase-conjugated anti-mouse IgG or anti-rabbit IgG.” left out, “software. […]” for “software.”

In assay [2] the test system is SGEF promoter NF-κB p65 consensus sequence. Briefly: Biotinylated electrophoretic mobility shift assay, NF-κB binding site of the SGEF promoter. To be noted: T98G nuclear proteins 2 hours after TWEAK 100 ng/mL. As to the method: T98G glioma cells were plated at a density of 3×10^6 in 100 mm^2 tissue culture dishes in normal growth medium. After 12 h, cells were cultured under reduced serum (0.5% FBS) for an additional 16 h before TWEAK (100 ng/mL) addition for 2 h. Isolation of cell nuclear protein was carried out using the NE-PER kit (Pierce) according to the protocol of the manufacturer. Protein-DNA complexes were detected using biotin end-labeled double-stranded DNA 23-mer probes containing the NF-κB binding sites within the SGEF promoter (NF-κB-SGEF wt target sequence: 5′-GTCTAGGAGGCAAATCCCAGAAA-3′ (SEQ ID NO:5); NF-κB-SGEF mt target sequence: 5′-GTCTAGGAGCCAGATCGCAGAAA-3′(SEQ ID NO:6)). The binding reactions were done using the LightShift kit (Pierce) according to the protocol of the manufacturer. Where indicated, 200-fold molar excess of unlabeled NF-κB-SGEF wt oligonucleotides or anti-p65 antibody was included. The reaction products were resolved by gel electrophoresis and detected by chemiluminescence according to the protocol of the manufacturer (Pierce).

On to `Cn1nnc2c(C(N)=O)ncn2c1=O` [TMZ, temozolomide], for which, in the assay on U87 glioma cells, the “time to phosphorylation of H2A.X after TMZ treatment” value is at most 30 min.

B1: TWEAK: Human recombinant TWEAK, tumor necrosis factor-like weak inducer of apoptosis, cytokine ligand of Fn14 (protein)
chain: SAPKGRKTRARRAIAAHYEVHPRPGQDGAQAGVDGTVSGWEEARINSSSPLRYNRQIGEFIVTRAGLYYLYCQVHFDEGKAVYLKLDLLVDGVLALRCLEEFSATAASSLGPQLRLCQVSGLLALRPGSSLRIRTLPWAHLKAAPFLTYFGLFQVH
As for B1, in assay [1], the “SGEF mRNA levels” value is recorded as “increased” and the SGEF protein levels result is on record as “increased”. Besides, in assay [2], the “NF-κB binding to the SGEF promoter region” value is given as “NF-κB binds to the SGEF promoter region”.
